The values that follow come from a protein production outcome set (Wang et al. 2014).

This series in a line: label from the status in PepcDB records.
Take “MTRTFDTPLPIDDALDELTAALEASNTAVLVAPPGAGKTTRVPLALLDAPWLRNQKIIVLEPRRIAARASAERMAKTLSEKAGERIGYRVRFGSKVSRATRIEVVTEGIFTRQILDDPELNGVAAVLFDEFHERSLDADLGLALARDAQQGLREDLRILVMSATIDGARVARLLGDAPVVESLGRAFPVETRYLGRRSDAPLERQMAEAIAQALRAETGSVLAFLPGAAEIRRTETMLRERVQDPAVEIVPLFGALDAAVQDRAIQPAPKGQRKVVLATSIAETSLTIEGVRIVVDCGLSRVPRYEPDLGLTRLETVRASRAAVDQRRGRAGRIEPGVCYRLWDEPQTASLPAYTQPEILSADLSSLLLDLAQWGVADPSSLAFLDPPPQPALKEARELLGELGALDPDGRITDEGRSLRAMALPPRLARMIVDAARHDCAKDAAEVAAILTERGLGGDSADLDNRRDQFRRDRSQRASSARQMAQRWATQAASSSPSPQDAGELSSGVLLAFAFPDRVAKNRGNGSFTLANGRGAAVEQTSALARAPYLAVGELTGSAAQGRILLAAPIALSEIELHFGDQITDADEVSFDRSAMALRARRRRALHAITLSEAPLALTPSEQTARVLAEGLVVAGLDRLPWSKQLQQWRGRVMFLRKAEGDPWPDLSDAALAETRENWLVPALFDKTGLKDFSASDLSDALMNLLPWELRARLDREAPTHFEAPTGSKLPIDYEAEQGPTIAVRLQELFGLTTHPSVAGGAVPLVLELLSPAHRPVQVTRDLPGFWRGSYAGVRADLRGRYPRHPWPEDPASAPPTRRAKPKGT”: the protein production entry was “failed”. As to “MYTRLLVVSLACLLFGVSAFAQPMAPVPDAPLRNAALRMKDKDYRAVRDELRSVPPSPERTFLDGVAARRLEQWPEASELLGVAAKDLPLLADYALFWQAEALMAATRYDEAEEVLQRLVGTWPDSPTLRKARMLLADAQFARKEYRQALASYIRFIELYPSGTDSVTANLKTALCREGLDDPRRAVQELRAIWLAYPASPVAETAEQELKRLEALGFPAVPLTPDELLKRGTTLYNLGKYERALAVFNTIPLKEQLAGFNDRVALKIGETLLKLRRYKDAARTFSSLIEREPKREIADEARFLLARAQNKAGNDDEAFLGFLKLAETAPTSEWADNALLEAAFVRKFQGRYADQLAVLEKLLTTYPGTKLKPRAMWETAWARYNTGDYRSAAESFRLLTASADYRERALYWHGRSLQRIGEETVARQSFAMLAEEYPFSFYTFTATDPAPQEGAIPLIVHDLRQTISPPAGHERARALIAMGLHDQARSELSIARKNGSSRGKGLLGIARLYLEMNDYSSAAAALRGEQPRRMDGETATTWGLLYPRGFSDSVAAEANRHTIPEELIYGLIKAESGFSPVALSPVGAVGLMQLMPSTAKGMVNGSSPANGISARLTDPTFNVGLGVRHLKDLLKQYNGNVVSAVAAYNAGSRPVDRWRRSLAGLREDEFIENIPYYETREYVKKVLTFAEVYRRLYRPAAPALAFLPQVSAPEPPQPAPTNNAPPTAALASPPETSALTAPVRQQP”, the protein production result is reported as “failed”.

As for “MELDMGKVITAKRKEKSWTQEQLAQAVGVSTPAVSKWETGATYPDITLLPPIARALNTTVDELFSYQNELSDNDVSGFTQKATSLYEAEGFDAGWNYCQKLLQEFPNSIPLKFYLGNLFQSFMIMKTDLGKEDIQSCYRQAAILYEEVLLSGYPKFTYHATLILVGFYTMLNELDRAEELLDSLPKLKTDPDFLYPSIYALRGKNEEAMKLTQENIRRYISRVSHGLSLLGAFAREQEDMDKACTLAKMNLEITKLLGISREIAYADMIKIMVARGDKEAALTYLEEYTQHILELSYDYAKSPVFNRVTEKFQDPSYVKKVLAQSILIDKEYTPLKEEPRYLQIVHRLRQVIDTQTHTFRE”, the protein production result is reported as “failed”. The value for “MLRVVSLTLVTLISAVAAAAAEPQAGDDLAICRDRQAELQARAQACDNLLNADRLAGKDKAIALSVRGNTLINKRDYARAIETLSMAVDLDPDNVIVLNLRGLAYERSGKDDLAMADYNLALQKRPTYGVPYNNRGVIHLRRGALQSALDDFNLSIKYTPKFLLGWTNRARVRTLMKDFDGAIADFAEAEKIDPAAPQIAGNRCITWGMMGKYDQAFADCNGLIEKQPKNVYAINNRADVSMMKGDLDAALKDYNSAIQINPNNVRAHSGRGQIYERRKDLAQARADYRAAAYSLTKFDELDVARARAVAQERLAALTPQAPAGATGRRVALVIGNGAYKNVHALPNPPRDSKLIANALRDVGFQTVISVSDLTRDKFFEALQTFAAEAEKADWAVVYYAGHGFEIGGVNYLVPVDAKLAADRDAEAQAVALEQVIAAVGAARKVRLVMLDACRDNPFAPTMQRTLSLKLVDKGFSNIEPGAGFMVVYAAKHGETAMDGDGGTDSPFATALAREIKEPRVEIRKLFDIVRDDVWSATRHEQQPFTYGSPPGREDFYFAAGK” was “failed”. To “MLSVSWEYNFSFKKLNVPSFSVCRMLCGKLQNPLDHKKDEASHVKHASQGDVPFSGPLQVSKSNSFAWAKREKDDVCVRVHNRSLSRGYIPSLSGHSPAFNGKSDVESKINKDEKEDKTDSRGEESYEMVKRSMLKQWRQLERPDSFGASDEYHSQELSLGLYQRDEMAKKMGNNLVRP” belongs “failed”. To “MRMIDIIEKKRDGHTLTTEEINFFIGGYVKGDIPDYQASSLAMAIYFQDMNDDERAALTMAMVNSGDMIDLSDIKGVKVDKHSTGGVGDTTTLVLAPLVAAVDVPVAKMSGRGLGHTGGTIDKLEAIDGFHVEIDEATFVKLVNENKVAVVGQSGNLTPADKKLYALRDVTGTVNSIPLIASSIMSKKIAAGADAIVLDVKTGSGAFMKTLEDAEALAHAMVRIGNNVGRNTMAIISDMNQPLGRAIGNALELQEAIDTLKGQGPKDLTELVLTLGSQMVVLANKAETLEEARALLIEAINSGAALEKFKTFIKNQGGDETVIDHPERLPQAQYQIEYKAKKSGYVTELVSNDIGVASMMLGAGRLTKEDDIDLAVGIVLNKKIGDKVEEGESLLTIHSNRQDVDDVVKKLDSSITIADHVVSPTLIHKIITE” belongs “not failed”. Take “MSLSNVQVNSSQRDEDSFIKGVKDCIPTLLGYLSIGIAAGVIQKTAGLSIAEITLMSLILYAGSGQFIAAGMIATSSSLTAIIITIFFVNLRHILLSAALAPYFRHLSPFRNMLVGSLLTDETFGVAISEAAKKKQISERWMHGLNITAYINWLVANLAGAFLAQWISNPEEFGLGFALPAMFIGILILTMLGRSTIKLDIIVAIIAVVIAVGSSFMLSSSMGVIVATIIASTIGMVVEKWK”: the protein production result is on record as “failed”.

“MTISQNRNGDDVAVHKFGLFVAKHRKLVLAIAILLLIPSIYGFVTTKVNYDILTYLPKDLESVKGQDILDKEFKQAALSMLIVKGDMNISNIQKLKSKISQVDGVEKVIWIDDFLDPTIPKEMLPDVLKNTFYSKDSTLLLIQFKNSASSLETQNAISKIRKIATAQCFLSGMSAIIKDTRDLSDRETPLYVLVAVVFIFILLLLTMESPIVPILFLTSIGMAIIYNLGTNKFLGEISYITKSLAAVLQLGVTMDFSIFLMHRYDEERKRFDSKEEAMAEAISKTLVAILSSAATAIAGFLALCVMRLRIGADIGIVMAKGVFLGVIGTVTILPALILTFDRAIHKFRLKNILPTFSKTAEFATKYHVVLFVVFLLAFIPAIYGRVNIKEYYNLIDSLPKTIKSVQATDLLKKEYNMTTTHMVLVDRSVPKYQIKNMCEEIKRVKGVEKVLAFDDILGPAIPDEFIPSSVKENFEKGNFKLIMINSIYKSATSEENAQIERIQQIVKKYSKRSYVTGEGVLTKDLVEMADTDLKRVDFISILAIFMIILITFKSISIPLILVLAIELAIFINLAIPYYTNVTVPFIASIVLGTIQLGSAINYAILMTTRFREEIQKGHDRFEAIKIAVKTSSRSVVTSALAFAFSTLAVALIAKIDMIRSLCEMLSRGAVISMIVILFVLPSLLLLFEGAIAKTTFGWRSKEASVKPSEEYETL”: the protein production result is reported as “failed”. To “MDSGFTLRAPRNDKRRNPMPAILGTGEHRYRVVENFAKLPDGWQLTDVAAVAVDSLDRVYVFNRGAHPMVVLDREGNFLRSWGEGLFSRAHGLHIDADDNLYCTDDGDHTVRKCTSDGKVLLTIGIPAKPAPFMSGEPFHRCTHTALSPKGEIYVSDGYGNARVHKFTPDGKLIKSWGEPGTDPGQFNIVHNIATDSDGWVYVADRENHRVQVFNGEGKYETQWNNLHRPCALCCCGGRSPTFVIGELGPGLDINRNVPNLGPRLSIVDAKGNRIARLGGEEGPGVASGKFLAPHGIALDSKGDIYVGEVGVTNWATSFPDQEMPAVVRATRCLQKLERVRELEHHHHHH” belongs “failed”; to “QALDVLDDAGRKVLFTEARTANTFAEVAVADDELAMIWELARWSPSAANGQPLRVLFVRTPEGKERLGRHLDEGNRAKTLSAPAVAILAYDVDFHEQMPTVFPARGEMLRAAFADQTEKRESLAAYNSALQTGVFLLAVRAAGLAAGPMAGFDRAGVDEEFFAGTSWRSHLVVNIGHPGADPWFPRLPRVPVEDAVAYA”, “failed”; to “MQGNLTALLITAIIVLTVVCIGFLAGRDKSSRTSVEEWSVGGRRFGGLLVWFLVGADLYTAYTFLGLTSTAFTGGSVAFFAIPYSVLAYFIAYFFLPKLWKVAKIHKLTTLADYARERFNSKLLASLVAIVGVLMLIPYICLQLSGIQDTLQVAGTGYINVKFVVIISFILVALYTFFSGIKGPTYTAIIKDILVWVIMLFMVVSLPLIHFNGWTPMIDTLVKEAPQMLTIPSEGPKGIPWFITASIVSALALFMWAHAATGVFTAKSADAVRKNSMFLPLYNIVLILVIFLGFIAFLVLPEDTNPRLALLHLIQTSYGGVAQGFAYATIALASLIPCSIMAIGASNLFANNLYRDLIHPNVSQSKLTLVTRSMVFVVIGLALLFGMLFPTALVTLQLLGVSGMVQIFPAIAVSLFWKNQTKEATVIGLLAGLAVTFIVYITQSAHGIYEGFWGLAANMIAVVILNPLFVKNAGSNPVIEGLFGKKQDANPNQKGA”, “failed”. The value for “MIKTHYAKLALSAFAVSILASCANLGMTGVADGNNSEQTYLGQINYQDQTITKASAKKLNREIDLQRASQLTLWAMPMVGMYQSYNSTIALFDLQEGDAPIIGLHEGYDGVYPFLTANVTTPYTISLVDLSETGPYVVNIPAGSIFGVANNAWQEPIKEIGSGNKETLLFVGPGQEYPKDFDGEVIQSDTNQILYFYRVLGVGAEAEKLKTAVTAYKLSDVANPPQVKFVIYKPKASDADVTIATQPRGMAYWEVVNQYIQNEPMADRDRFFYAWLKDLGIEKGKAFNPTPYQKEILLEGVNTGMAMAQSLAFNKTKKKFSSSLYGSDSGWEGVLAGMDPKIDLDTYSMINERTAYTYEAVTTSAGMIVENPGHGSAYIGSYYDADGNALMGGKNYTLHIEPNPPAANFWSITVYDIKNRLIIRNEIKRSDLSSRSESLVMNSDGSVDLYFGPEAPEGKEGNWIQSNDGESYFMYLRLYGPEQEYFDQTYPMNKIDKTK” was “failed”; that for “MKSGVIPSSAVGQKINEWYRYIRTFSVPDAEVLKAEIQQELKHMQHDSNLLLYYSLMEFRHQLMLDYLEPLEKLNIEDQPSLSELSRNIDSNQADLKGLLDYYVNFFRGMYEFDKREFISAITYYKQAEKKLSFVADHIERAEFYFKIAEAYYYMKQTYFSLINIKNAYEIYVEQETYNVRIIQCHFVFGVNLMDERNFEQAARHFKLALNMAQAEQKAQLVGRAYYNLGLCYYNQDLLDPAIDYFEKAVSTFESSRIVNSLPQAYFLITLIYYKQGKHDKASEYHKRGYEYAKETDDADYAVKFEFLQSLYLDQPNEEGIERCFQYLKNKNMYADIEDLALEVAKYYYEQKWFKLSASYFLQVEEARKQIQRSEGLYEIEI” was “failed”. Take “MAELYVKPGNKERGWNDPPQFSYGLQTQTGGPKRTPLTKRVAAPQDGSPRAPETSGPPPVDHPPPSSKASRPPPMGSCPATGVEPPSSPVIESETLIEDVLRPLEQALEDCHGHTKKQVCDDISRRLALLREQWAGGKLSIPVKKRMALLVQELLHHQWDAADDIHRSLMVDHVTEVSQWMVGVKRLIAEKKSLSSEETKEEKFTVEPENQTIPGFQQPS”: the protein production result is “not failed”.
